Consider 16 molecules from patent publication US20220089784A1 (University of California, published 2022).

As a reminder, the Kd is a measure of binding affinity in units of concentration.

Assay in all cases: yeast scFv FACS
In experiment [1] the target is T1, BoNT/F1 (proteolytic BoNT/F) (Clostridium botulinum, UniProt A7GBG3 1-1278).
T1 sequence: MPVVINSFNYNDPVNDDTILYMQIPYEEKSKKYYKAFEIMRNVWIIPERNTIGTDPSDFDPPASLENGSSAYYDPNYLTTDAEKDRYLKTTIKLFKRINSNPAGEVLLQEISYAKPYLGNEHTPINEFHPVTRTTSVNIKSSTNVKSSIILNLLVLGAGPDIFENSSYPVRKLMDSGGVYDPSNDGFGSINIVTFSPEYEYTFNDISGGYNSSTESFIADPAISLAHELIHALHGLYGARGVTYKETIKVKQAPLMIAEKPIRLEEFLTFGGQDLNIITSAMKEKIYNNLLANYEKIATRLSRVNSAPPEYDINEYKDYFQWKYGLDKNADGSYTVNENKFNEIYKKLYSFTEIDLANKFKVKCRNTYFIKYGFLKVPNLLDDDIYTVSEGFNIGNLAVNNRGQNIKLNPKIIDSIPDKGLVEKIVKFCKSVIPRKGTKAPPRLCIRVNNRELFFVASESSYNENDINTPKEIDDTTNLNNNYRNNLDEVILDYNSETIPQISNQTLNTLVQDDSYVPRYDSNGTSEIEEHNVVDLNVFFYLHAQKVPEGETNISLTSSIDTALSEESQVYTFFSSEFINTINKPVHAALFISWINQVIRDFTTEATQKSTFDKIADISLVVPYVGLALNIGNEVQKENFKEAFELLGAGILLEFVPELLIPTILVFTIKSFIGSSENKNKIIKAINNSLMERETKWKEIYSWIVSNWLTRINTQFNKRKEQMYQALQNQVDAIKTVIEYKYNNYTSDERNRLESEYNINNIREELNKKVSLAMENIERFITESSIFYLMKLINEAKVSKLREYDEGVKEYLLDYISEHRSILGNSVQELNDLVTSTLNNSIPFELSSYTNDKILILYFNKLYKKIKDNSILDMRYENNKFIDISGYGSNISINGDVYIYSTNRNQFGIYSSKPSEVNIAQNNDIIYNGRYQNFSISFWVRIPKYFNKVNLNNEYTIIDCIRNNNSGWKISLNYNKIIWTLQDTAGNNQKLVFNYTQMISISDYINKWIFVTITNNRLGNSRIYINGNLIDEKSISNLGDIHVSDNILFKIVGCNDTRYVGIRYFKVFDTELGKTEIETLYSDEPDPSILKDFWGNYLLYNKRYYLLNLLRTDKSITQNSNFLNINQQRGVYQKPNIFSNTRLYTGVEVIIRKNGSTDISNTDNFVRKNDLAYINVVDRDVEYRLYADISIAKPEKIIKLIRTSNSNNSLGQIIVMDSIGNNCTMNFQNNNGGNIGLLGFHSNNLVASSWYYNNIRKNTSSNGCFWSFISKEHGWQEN

Experiment [2] addresses T2, BoNT/B light chain (recombinant) (Clostridium botulinum, UniProt P10844 1-441).
T2 sequence: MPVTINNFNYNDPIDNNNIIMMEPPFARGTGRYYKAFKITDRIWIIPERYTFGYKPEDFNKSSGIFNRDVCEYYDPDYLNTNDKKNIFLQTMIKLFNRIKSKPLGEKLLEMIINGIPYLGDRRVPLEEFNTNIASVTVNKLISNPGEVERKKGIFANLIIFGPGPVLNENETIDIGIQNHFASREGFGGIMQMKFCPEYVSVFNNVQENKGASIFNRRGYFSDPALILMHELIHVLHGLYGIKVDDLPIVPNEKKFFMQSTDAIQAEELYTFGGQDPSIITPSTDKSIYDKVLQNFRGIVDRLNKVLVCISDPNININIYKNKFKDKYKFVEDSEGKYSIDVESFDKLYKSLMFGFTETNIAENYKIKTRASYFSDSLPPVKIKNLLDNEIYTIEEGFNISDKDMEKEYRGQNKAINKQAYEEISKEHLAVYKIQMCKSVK

Experiment [3] deals with BoNT/A light chain (recombinant) (Clostridium botulinum, UniProt P0DPI0 1-448).
Experiment [4] addresses BoNT/A1 holotoxin (Hall hyper) (Clostridium botulinum, UniProt P0DPI0 2-1296).
Experiment [5] concerns the target BoNT/A2 holotoxin (FRI-H1A2) (Clostridium botulinum, UniProt Q45894 2-1296).

Where a chain is given by its changes, count along the chain named. A value given as a limit tells only on which side of the number the result lay.

Sequence of BoNT/A2 holotoxin (FRI-H1A2) (Q45894 2-1296): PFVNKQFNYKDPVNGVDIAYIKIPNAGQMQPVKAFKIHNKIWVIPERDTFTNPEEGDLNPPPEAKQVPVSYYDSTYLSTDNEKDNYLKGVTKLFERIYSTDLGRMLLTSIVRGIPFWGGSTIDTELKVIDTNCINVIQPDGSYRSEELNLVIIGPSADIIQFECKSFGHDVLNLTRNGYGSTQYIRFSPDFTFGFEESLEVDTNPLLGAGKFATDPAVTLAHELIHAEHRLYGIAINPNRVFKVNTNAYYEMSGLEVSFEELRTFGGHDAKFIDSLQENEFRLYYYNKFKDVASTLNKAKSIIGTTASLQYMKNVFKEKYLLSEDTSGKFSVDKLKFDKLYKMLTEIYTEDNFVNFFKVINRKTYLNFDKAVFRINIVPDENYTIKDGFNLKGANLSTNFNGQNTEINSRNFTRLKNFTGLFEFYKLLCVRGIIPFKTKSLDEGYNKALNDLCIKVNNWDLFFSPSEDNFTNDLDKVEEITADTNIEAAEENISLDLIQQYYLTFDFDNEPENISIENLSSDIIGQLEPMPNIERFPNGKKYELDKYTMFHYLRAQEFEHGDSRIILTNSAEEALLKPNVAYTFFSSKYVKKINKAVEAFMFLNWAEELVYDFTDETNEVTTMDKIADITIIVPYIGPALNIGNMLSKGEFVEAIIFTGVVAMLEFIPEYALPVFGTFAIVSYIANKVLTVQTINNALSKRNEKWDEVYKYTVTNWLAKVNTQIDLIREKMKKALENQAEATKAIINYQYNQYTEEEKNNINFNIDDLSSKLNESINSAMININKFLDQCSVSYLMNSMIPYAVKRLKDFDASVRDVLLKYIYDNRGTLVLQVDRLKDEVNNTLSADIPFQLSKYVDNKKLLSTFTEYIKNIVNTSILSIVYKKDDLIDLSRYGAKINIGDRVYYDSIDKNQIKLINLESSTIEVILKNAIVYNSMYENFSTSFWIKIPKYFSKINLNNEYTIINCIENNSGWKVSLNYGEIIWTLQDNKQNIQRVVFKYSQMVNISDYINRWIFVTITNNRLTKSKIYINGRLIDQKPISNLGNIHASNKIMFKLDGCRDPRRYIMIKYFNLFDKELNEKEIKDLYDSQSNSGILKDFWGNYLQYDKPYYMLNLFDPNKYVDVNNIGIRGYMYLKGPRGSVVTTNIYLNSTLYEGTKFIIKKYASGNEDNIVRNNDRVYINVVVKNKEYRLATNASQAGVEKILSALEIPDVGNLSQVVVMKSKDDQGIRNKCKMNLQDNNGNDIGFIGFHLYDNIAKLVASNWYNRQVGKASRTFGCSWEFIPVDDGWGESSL

B1: 39D1.1 scFv (scFv, V domains shown)
VH: EVQLVQSGGNLVQPGGSLRLSCAATGPIGSHWMTWVRQAPGQGLEWVANINLDGTEKFYVDSVKGRFTVSRDNRKSSVFLQMNNLRVDDTAVYYCARLQWGGYDGWLSPWGQGTLVTVSS
VL: DIVMTQSPPSLSASVGDRVSLTCRASEYIGTSLNWYQQKPGKAPKLLIYAASALHSGVPSRFSGSGSGTDFTLTISGLQPEDFATYYCQQANDLPLTFGGGTKLEIK
For the molecule B1, the Kd in experiment [1] came to 0.747 nM.

B2: 41A4 scFv (scFv, V domains shown)
VH: B1 VH
VL: B1 VL with A91T
With B2, the Kd in experiment [1] amounted to 0.533 nM.

B3: 41B7 scFv (scFv, V domains shown)
VH: B1 VH
VL: B1 VL with K42T
Molecule B3 displayed a Kd in experiment [1] of 0.892 nM.

B4: 31C3 scFv (scFv)
scFv: EVKLVETGPELKKPGETVKISCKASGYTFTNYGMNWVKQAPGKGLKWMGWINTNTGEPTYAEEFKGRFAFSLETSASTAFLQINNLKNEDTATYFCARGPIYYGTSYRFFDVWGTGTSVTVSSVDLKSGGSTSGSGKPGSGEGSSGSARQIVLTQSPAIMSASPGEKVTMTCRASSSVSSSYLHWYQQKPGSSPKLWIYSTSNLASGVPARFSGSGSGTSYSLTISRMEAEDAATYFCQQWSSFPPTFGGGTKLELK
notes: mouse
Turning to B4, the Kd in experiment [2] is 5.27 nM.

B5: 31H3 scFv (scFv)
scFv: EVQLQQSGAELVRPGASVKMSCKASGYPFTIYWITWVKQRPGQGLEWIGEIYPGSGFTKYNEKFRSKATLTVDTSSSTAYMQLSSLTSEDSAVYYCALYGSNFDYWGQGTTLTVSSVDLKSGGSTSGSGKPGSGEGSSGSARDIVMTQSPAIMSASPGEKVTMPCSASSSVSYMHWYQQKPGTSPKRWIYDTSKLASGVPARFSGSGSGTSYSLTISRVEAEDAATYYCQQWSSHPPTFGAGTRLEIK
notes: mouse
As to B5, in experiment [2], the Kd turned out to be 1.28 nM.

B6: 1C7 scFv (scFv)
scFv: EVQLQQSGAELVRPGASVKMSCKASGYTFTSYNMHWVKQTPRQGLEWIGAIYPGNGDTSYNQKFKGKATLTVDKSSSTAYMQLSSLTSEDSAVYFCARTAGFYFDYWGQGTTLTVSSVDLKSGGSTSGSGKPGSGEGSSGSARDIVMTQSPAIMSASPGEKVTMTCSASSSVSYMYWYQQKPGSSPRLLIYYTSNLAPGVPARFSGSGSGNSYSLTISSMEGEDAATYYCQQFTSSPYTFGGGTKLEIK
notes: mouse
For B6, the Kd in experiment [3] is 35.3 nM. The binding result in experiment [4] and in experiment [5] was “no binding” throughout.

B7: 31A5 scFv (scFv)
scFv: DVQLQESGPELVKPGASVKISCKASGYSFTDYNMNWVKQSNGKSLEWIGVINPNYGTTSYNQKFKGKATLTVDQSSSTAYMQLNSLTSEDSAVYYCARSGGTGYYFDYWGQGTTLTVSSVDLKSGGSTSGSGKPGSGEGSSGSARQIVLTQSPAILSASPGEKVTMTCRASSSVSYMHWYQQKPGSSPKAWIYATSNLASGVPARFSGSGSGTSYSLTISRVEAEDAATYYCQQWSSYPPTFGSGTKLEIK
notes: mouse
Turning to B7, the Kd in experiment [2] worked out at 9.31 nM.

B8: 31A5.1 scFv (scFv)
scFv: B7 scFv with T165A, A190L, W191L, A194D, A204V, V222M, S244G
notes: mouse
Take B8: in experiment [2], the Kd stood at 1.75 nM.

B9: 38D11 scFv (scFv, V domains shown)
VH: QVQLQESGGGVVQPGRSLRLSCAASGFTFSSYGMHWVRQAPGKGLEWVAVIWYDGSNKYYADSVKGRFTISRDNSKNTLYLQMNSLRAEDTAVYYCARDKGWELMTNTDAFDIWGQGTLVTVSS
VL: not shown
B9 returned a Kd in experiment [1] of 29.1 nM.

B10: 31G2 scFv (scFv)
scFv: QVQLQQSGAELVKPGASVKLSCTASGFNIKDTYMHWVKQRPEQGLEWIGRIDPEDGETKYAPKFQGKATITADTSSNTAYLQLSSLTSEDTAVYYCARWLLYYYAMDYWGQGTSVTVSAVDLKSGGSTSGSGKPGSGEGSSGSARQIVLTQSPALMAASPGEKVTITCSVSSSISSSNLHWYQQKSETSPKPWIYGTSNLASGVPARFSGSGSGTSYSLTISRVEAEDAATYYCHQRSSYPLTFGAGTKLEIK
notes: mouse
Turning to B10, the Kd in experiment [2] came out at 3.34 nM.

B11: 31E2 scFv (scFv)
scFv: EVKLVESGAELVRPGASVKLSCTASGFNIKDDYVHWVKQRPEQGLEWIGRIDPEDGETKYAPKFQGKATITADTSSNTAYLQLSSLTSEDTAVYYCALWSNWYFDVWGAGTTVTVSSVDLKSGGSTSGSGKPGSGEGSSGSAREIVLTQSPAIMSASPGEKVTMTCRASSSVSYMHWYQQKPGSSPKPWIYATSNLASGVPARFSGSGSGTSYSLTISRVEAEDAATYYCQQWTSNPPTFGGGTKLEIK
notes: mouse
B11: the Kd in experiment [2] was 17.1 nM.

B12: 31E2.20 scFv (scFv)
scFv: EVKLVESGAELVRPGASVKLSCTASGFNIKDDYVHWVKQRPEQGLEWIGRIDPEDGETKYAPKFQGKATITADTSSNTAYLQLSSLTSEDTAVYYCALWSNWYFDVWGAGTTVTVSAVDLKSGGSTSGSGKPGSGEGSSGSAREIVLTQSPEILSASPGEKVTMTCRASSSVSYMHWYQQKPGSSPKPWIYATSNLASGVPARFSGSGSGTSYSLTISSMEAEDAATYYCQQFHNYPPTFGAGTKLELK
notes: mouse
As to B12, the Kd in experiment [2] amounted to 1.96 nM.

B13: 18F2 scFv (scFv)
scFv: EVQLQQSGPELMKPGASVKISCKASGYAFSRSWMNWVKQRPGKGLEWIGRIYPGDGDTNYNGKFKDKASLTADTSSSTAYMQLSSLTSEDSAVYFCTKSEGYYHNLGAYWGQGTTVTVSSVDLKSGGSTSGSGKPGSGEGSSGSAREIVLTQSPAIMSASPGQKVTITCSASSSVSYMHWYQQKSGTSPKRWIYDTSKLASGVPARFSGSGSGTSYSLIISSMEAEDAATYYCQQWRSNPPTFGGGTRLEIK
notes: mouse
As to B13, the Kd in experiment [2] amounted to 1.05 nM.

B14: 10C9 scFv (scFv)
scFv: QVQLQQSGAELVRPGTSVKLSCKASGYTFTSHWMHWVKQRPGQGLEWIGVIDPSDSYTNYNQKFKGKATLTVDTSSSTAYMQLSSLTSEDSAVYYCAIRRNYGMDYWGQGTSVTVSSVDLKSGGSTSGSGKPGSGEGSSGSARDIVMTQSPTSLAVSLGQRATISCKASQSVDYDGDSFMNWYQQKPGQPPKLLIYGASNLESGIPARFSGSGSRTDFTLTINPVEADDVATYYCQQSNEDPLTFGAGTKLELK
notes: mouse
B14: the figures for the Kd in experiment [3], in experiment [4] and in experiment [5] were 0.36 nM, above 500 nM and 112 nM, respectively.

B15: 34E8B12 scFv (scFv)
scFv: QVQLVESGPDLVKPSQSLSLTCTVTGYSITSGYSWHWIRQFPGNKLEWMGYIHYSGSTNYNPSLKSRISITRDTSKNQFFLQLNSVTTEDTATYYCAVYYDYDGDYFDYWGQGTTLTVSSVDLKSGGSTSGSGKPGSGEGSSGSARDVVMTQSPAIMSASPGEKVTMTCSASSSVSYMYWFQQKPGSSPKPWIYRTSNLAPGVPARFSGSGSGTSYSLTISSMEAEDAATYYCQQWSSNPPWTFGGGTKLEIK
notes: mouse
On to B15, for which, in experiment [2], the Kd turned out to be 2.44 nM.

B16: 37B4 scFv (scFv, V domains shown)
VH: QVQLVQSGAEVKKPGSSVKVSCKASGGTFSSYAISWVRQAPGQGLEWMGGIIPIFGTANYAQKFQGRVTITTDTSTSTAYMELRSLRSDDTAVYYCARDEDYYDSSGYYDYWGQGTLVTVSS
VL: QTVVTQEPSLTVAPGGTVTLTCGSSAGAVTTDHYPSWFQKKPGQAPTTIIYDTTNKHSMTPGPARFSGSLLGGKAALTLSGAQPEDEAEYYCFLSYRGSRPVFGGGTKVTVL
As for B16, the affinity in experiment [1], expressed as Kd, was 10.1 nM.
